# According to PMC8371691:
# Target: N-terminal(Lon)-LotP.His ('Candidatus Liberibacter asiaticus')
# Assay: SEC
substance,measurement,value
N-terminal(Lon)-LotP.His,stoichiometry N,2
